The labels stand for the following.
B1: MdMPK6-02G (as used in the BLI assay) (enzyme)
chain: MEGGGRSADTMMSEAAPPSQPDPNHPQQHPPPPHHAMGGVESIPATLSHGGRFIQYNIFGNVFEVTAKYKPPIMPIGKGAYGIVCSALNSETNEHVAVKKIANAFDNRIDAKRTLREIKLLRHMDHENVVAIRDIIPPPQRNFFNDVYIAYELMDTDLHQIIRSNQALSEEHCQYFLYQILRGLKYIHSANVLHRDLKPSNLLLNANCDLKICDFGLARVTSETDFMTEYVVTRWYRAPELLLNSSDYTAAIDVWSVGCIFMELMDRKPLFPGRDHVHQLRLLMELIGTPSEAELQFLNENAKRYIRQLPLYRRQSFTEKFPHVHPSAIDLVEKMLTFDPTRRITVEDALAHPYLTSLHDISDEPVCLTPFSFDFEQHALSEEQMKELIYREALAFNPEYQRQ
B2: MdHY5 (as used in the BLI assay) (natural protein)
chain: MQEQATSSLAASSLPSSSERSSSSAFHLEVKEGMESDEEIGRVPEIGGESAGASASARENGLLAGPDQVQTAGESQRKRGRNPADKESKRLKRLLRNRVSAQQARERKKAYLNDLEVRVKELEQKNSELDERLSTLQNENQMLRHILKNTTASRRGADGGANAD

Common to all, as to test: BLI
Assay [1] concerns the target B2.
The target in assay [2] is B2.
Assay [3] deals with MdMPK6-15G (as used in the BLI assay) (Malus domestica (apple)).

In the case of B1, in assay [1], the koff stood at 0.00355 s⁻¹. The molecule also displayed a Kd in assay [2] of 119 nM.

In assay [3], B2 showed a Kd of 93.9 nM and a koff of 0.00105 s⁻¹.

Values taken from publication PMC9884024 (2022).
